PMC11570498, “A promiscuous mechanism to phase separate eukaryotic carbon fixation in the green lineage” (Nature Plants, 2024)

Assays:
[1] = target: T1, CsLinker α3 fragment (residues 142–207) (Chlorella sorokiniana UTEX1230); assay: SPR; Rubisco immobilised as bait, fragments as analyte (prey); Biacore T100/T200, 25 °C; analyte injected at 15 μl/min for 30 s, 360 s dissociation; fit of y = Bmax·x/(KD + x); apparent KD; triplicate; conditions: both partners purified
T1 construct: CsLinker (CSI2_123000012064), Chlorella sorokiniana UTEX1230, residues 142–207: one whole repeat centred on predicted α-helix 3; residues numbered by their position in the full-length CsLinker; From the plasmid His-mEGFP-TEV-α3-TEV-MBP-His; also called single helix α3 fragment; source: E. coli BL21 (DE3), purified (IMAC, TEV cleavage, second IMAC, SEC); not shown: His6, N-terminal, cleaved; …

[2] = target: T2, CsLinker α3–α4 fragment (residues 142–272) (Chlorella sorokiniana UTEX1230); assay: as above; conditions: both partners purified
T2 construct: CsLinker (CSI2_123000012064), Chlorella sorokiniana UTEX1230, residues 142–272: two repeats with predicted α-helices 3 and 4; residues numbered by their position in the full-length CsLinker; From the plasmid His-mEGFP-TEV-α3–α4-TEV-MBP-His; also called α3–α4 double repeat fragment; source: E. coli BL21 (DE3), purified (IMAC, TEV cleavage, second IMAC, SEC); not shown: His6, N-terminal, cleaved; …

B1: Ulva mutabilis Rubisco (UmRubisco) (complex)
chain 1: GVKDYRLTYYTPDYQVKDTDILAAFRMTPQPGVPAEEAGAAVAAESSTGTWTTVWTDGLTSLDRYKGRCYDIEPLGEDDQYIAYIAYPLDLFEEGSVTNLFTSIVGNVFGFKALRALRLEDLRIPPAYVKTFQGPPHGIQVERDKLNKYGRGLLGCTIKPKLGLSAKNYGRAVYECLRGGLDFTKDDENVNSQPFMRWRDRFLFVAEAIYKSQSETGEVKGHYLNATAGTCEEMMERGQFAKDLGVPIVMHDYITGGFTANTTLAHFCRASGLLLHIHRAMHAVIDRQRNHGIHFRVLAKILRMSGGDHLHSGTVVGKLEGEREITLGFVDLMRDDYIEKDRSRGIYFTQDWVSLPGTMPVASGGIHVWHMPALVEIFGDDACLQFGGGTLGHPWGNAPGAAANRVALEACTQARNEGRDLASEGGDVIRAA
chain 2: MRVWTPHNNKMFETFSFLPPLSHGEIARQVDYIIANGWTSCLEFADSDCAYVQDKANIRFGNSASCNYYDNRYWTMWKLPMFGCTNPNEVLGEIDSCKRAFPESYIRLVAFDNIAQCQTIGFLVNRPPRSGDFQSPENRSVA
Kd [1]: 162 µM | Kd [2]: 1.56 µM
